{"source": "patent US9890400B2", "about": "“Method of production of 2,4-dihydroxybutyric acid” (ADISSEO FRANCE S.A.S., priority 2012, dated 2018)", "key": {"[1]": {"substrate": "O=CC[C@H](O)C(=O)O", "assay": "Malate semialdehyde reductase activity", "assay_type": "biochemical, Metallosphaera sedula", "details": "other: malate semialdehyde, NADH or NADPH, pH 7.5, 30° C., average of at least two independent experiments", "protocol": "(§1) Test for Malate Semialdehyde Reductase Activity: (L)-Malate semialdehyde+NAD(P)H→(L)-2,4-dihydroxybutyric acid+NAD(P) Reaction scheme:\n(§2) The assay mixture contained 200 mM Hepes (pH 7.5), 50 mM KCl, 5 mM MgCl2, 0.24 mM NADH or NADPH, and appropriate amounts of purified enzyme or cell extract. Reactions were started by adding 10 mM (L)-malate semialdehyde (malate semialdehyde was prepared freshly for each test, see Example 3). Enzymatic assays were carried out at 30° C. in 96-well flat bottomed microtiter plates in a final volume of 250 μL. The reactions were followed by the characteristic absorption of NAD(P)H at 340 nm (εNADPH=6.22 mM^−1 cm^−1) in a microplate reader (BioRad 680XR).\nSite-directed mutagenesis was carried out using the oligonucleotide pairs listed in Table 6 and the pET28-Mse-SSR plasmid as the template. Point mutations to change the amino acid sequences were introduced by PCR (Phusion 1U, HF buffer 20% (v/v), dNTPs 2.5 mM, direct and reverse primers 1 μM each, template plasmid 200 ng, water). When possible, plasmids created by PCR contained new restriction sites (introduced using silent mutations) in addition to the functional mutation to facilitate identification of mutated clones. The PCR products were digested by DpnI at 37° C. for 2×2 h to remove template DNA, and transformed into NEB DH5-α competent E. coli cells (NEB). The mutated plasmids were identified by restriction site analysis and verified to carry the desired mutations by DNA sequencing."}, "[2]": {"substrate": "O=CC[C@H](O)C(=O)O", "assay": "Malate semialdehyde reductase activity", "assay_type": "biochemical, Metallosphaera sedula", "details": "other: malate semialdehyde, NADH or NADPH, pH 7.5, 30° C., average of at least two independent experiments", "protocol": "To identify a suitable 2,4 DHB dehydrogenase, beta-hydroxyacid dehydrogenases from different biological sources were tested for their ability to reduce malate semialdehyde. […] The genes YPR1, 4hbdh, yqhD, and Ms-SSR were amplified using primers listed in Table 5 and cloned into vector pET28 (restriction enzymes see Table 5) yielding plasmids pET28-Sce-YPR1, pET28-Pgi-4-hbdh, pET28-Eco-yqhd and pET28-Mse-SSR, respectively. The proteins were expressed and purified as described in Example 1.\nas §1, §2", "remark": "listed apart in the source"}, "[3]": {"substrate": "O=CCCC(=O)O", "assay": "purified protein, by the assay type", "details": "other: oxidative sense, 1 mM NADP, 0.5 mM coenzyme A, pH 9, 37° C., pH 9.0"}, "[4]": {"substrate": "CC(C)(COP(=O)(O)OP(=O)(O)OC[C@H]1O[C@@H](n2cnc3c(N)ncnc32)[C@H](O)[C@@H]1OP(=O)(O)O)[C@@H](O)C(=O)NCCC(=O)NCCSC(=O)CCC(=O)O", "assay": "purified protein, by the assay type", "details": "other: reductive sense, succinyl-CoA added directly, NADPH, pH 7.5, 37° C., pH 7.5"}, "[5]": {"substrate": "O=CC[C@H](O)C(=O)O", "assay": "purified protein, by the assay type", "assay_type": "biochemical, Sulfolobus tokodaii", "details": "other: oxidative sense, 1 mM NADP, 0.5 mM coenzyme A, pH 9, 37° C.", "protocol": "NCBI references of the utilized mcr and sucD protein sequences, and the references for the corresponding natural and synthetic DNA sequences are listed in Table 2.\nTo purify St-Mcr, frozen cell pellets of expression cultures were resuspended in 0.5 mL of breakage buffer (50 mM Hepes, 300 mM NaCl, pH 7.5) and broken open by four successive rounds of sonication (sonication interval: 20 sec, power output: 30%, sonicator: Bioblock Scientific, VibraCell™ 72437). Cell debris were removed by centrifuging the crude extracts for 15 min at 4° C. at 13000×g and retaining the clear supernatant. Native proteins of E. coli were removed by heat precipitation at 85° C. during 30 min followed by centrifugation at 13000×g. […]\nAssay 1 (Reaction Scheme): glyoxylate+acetyl-CoA→malyl-CoA+acetate Malyl-CoA lyase: (L)-Malyl-CoA+NADPH→(L)-Malate semialdehyde+Coenzyme A+NADP Malyl-CoA reductase: Assay 2 (Reaction Scheme): (L)-Malate semialdehyde+Coenzyme A+NADP→(L)-Malyl-CoA+NADPH The reaction mixture according to Assay 1 contained 50 mM MOPS/KOH (pH 7.5), 10 mM glyoxylate, 4 mM acetyl-CoA, 5 mM MgCl2, 0.25 mM NADPH (all products from Sigma), 5 U/mL of malyl-CoA lyase, and appropriate amounts of purified malyl-CoA reductase or cell extract. […] The reactions were followed by the characteristic absorption of NADPH at 340 nm (εNADPH=6.22 mM^−1 cm^−1) in a microplate reader (BioRad 680XR). […]"}, "[6]": {"substrate": "O=CC(=O)O", "assay": "Malyl-CoA lyase assay coupled to citrate synthase / DTNB", "assay_type": "biochemical, M. extorquens", "details": "other: pH 7.5, 37° C., 1 mM acetyl-CoA", "source_text": "Construction of plasmids containing wild-type genes coding for malyl-CoA lyase: The DNA sequences of the mcl genes coding for malyl-CoA lyase in M. extorquens (Arps et al., 1993) and Rhodobacter capsulatus (Meister et al., 2005) were optimized for the expression in Escherichia coli using the GENEius software (Eurofins). The optimized sequences were synthesized by Eurofins MWG OPERON® adding NheI and EcoRI restriction sites upstream of the start codon and downstream of the stop codon of mcl, respectively, which allowed direct cloning of the synthesized DNA fragments into the pET28a+ vector (Novagen) using T4 DNA ligase (Biolabs). […]\nMalyl-CoA lyase activity was assayed using a method adapted from (Meister et al., 2005). Malyl-CoA synthesis by malyl-CoA lyase was coupled to the citrate synthase-catalyzed release of coenzyme A which was monitored by its spontaneous reaction with DTNB. […]\nThe reaction mixture according to Assay 1 contained 50 mM MOPS/KOH (pH 7.5), 0.25 mM DTNB, 5 mM MgCl2, 1 mM acetyl-CoA, 20 U/mL citrate synthetase (all products from Sigma), and appropriate amounts of purified malyl-CoA lyase or cell extract. […] The reactions were followed by the characteristic absorption of DNTB at 412 nm (εDNTB+CoA=13.6 mM^−1 cm^−1) in a microplate reader (BioRad 680XR)."}}, "data": [{"protein": "Metallosphaera sedula succinic semialdehyde reductase (Ms-SSR) mutant H39R, SEQ ID No. 32 (Metallosphaera sedula DSM 5348; H39R) (protein) MKAAVLHTYKEPLSIEDVNISQPKAGEVKIKVKATGLCRSDVNVFEGKTPVPPPVVAGHEISGIVEEVGPGVTRVKPGDRVISAFIHPCGKCGNCVAGKENLCETFSQVRLKGVMPDGTSRLSKDGKEIRTFLGGGFAEYAIVGENALTRVPEDMDLEKVAVLGCAGLTGYGAISSSKIEPGDTVAVIGVGGVGLSTIQLLRASGAGRIIAVGTKKWKLDRAMELGATDVVNSKEIDPVKAIKEITGGGPQVVIEAGGNEDTIHMALDSVRIGGKVVLVGLPPATAMIPIRVASIVRGGIEVVGNYGGRPRVDMPKLLELVRQGRYDPSRLVTGRFRLEEINEAVKMLEEGEAIRSLIIP", "values": [{"measurement": "Km", "setting": "[1]", "result": 1000, "unit": "µM"}]}, {"protein": "Metallosphaera sedula succinic semialdehyde reductase (Ms-SSR), wild type, SEQ ID No. 16 (Metallosphaera sedula DSM 5348) (protein, full length 360 aa) MKAAVLHTYKEPLSIEDVNISQPKAGEVKIKVKATGLCHSDVNVFEGKTPVPPPVVAGHEISGIVEEVGPGVTRVKPGDRVISAFIHPCGKCGNCVAGKENLCETFSQVRLKGVMPDGTSRLSKDGKEIRTFLGGGFAEYAIVGENALTRVPEDMDLEKVAVLGCAGLTGYGAISSSKIEPGDTVAVIGVGGVGLSTIQLLRASGAGRIIAVGTKKWKLDRAMELGATDVVNSKEIDPVKAIKEITGGGPQVVIEAGGNEDTIHMALDSVRIGGKVVLVGLPPATAMIPIRVASIVRGGIEVVGNYGGRPRVDMPKLLELVRQGRYDPSRLVTGRFRLEEINEAVKMLEEGEAIRSLIIP", "values": [{"measurement": "Km", "setting": "[2]", "result": 4000, "unit": "µM"}]}, {"protein": "Metallosphaera sedula succinic semialdehyde reductase (Ms-SSR) double mutant H39R N43H, SEQ ID No. 36 (Metallosphaera sedula DSM 5348; H39R/N43H) (protein) MKAAVLHTYKEPLSIEDVNISQPKAGEVKIKVKATGLCRSDVHVFEGKTPVPPPVVAGHEISGIVEEVGPGVTRVKPGDRVISAFIHPCGKCGNCVAGKENLCETFSQVRLKGVMPDGTSRLSKDGKEIRTFLGGGFAEYAIVGENALTRVPEDMDLEKVAVLGCAGLTGYGAISSSKIEPGDTVAVIGVGGVGLSTIQLLRASGAGRIIAVGTKKWKLDRAMELGATDVVNSKEIDPVKAIKEITGGGPQVVIEAGGNEDTIHMALDSVRIGGKVVLVGLPPATAMIPIRVASIVRGGIEVVGNYGGRPRVDMPKLLELVRQGRYDPSRLVTGRFRLEEINEAVKMLEEGEAIRSLIIP", "values": [{"measurement": "Km", "setting": "[1]", "result": 1000, "unit": "µM"}]}, {"protein": "Metallosphaera sedula succinic semialdehyde reductase (Ms-SSR) mutant N43H, SEQ ID No. 34 (Metallosphaera sedula DSM 5348; N43H) (protein) MKAAVLHTYKEPLSIEDVNISQPKAGEVKIKVKATGLCHSDVHVFEGKTPVPPPVVAGHEISGIVEEVGPGVTRVKPGDRVISAFIHPCGKCGNCVAGKENLCETFSQVRLKGVMPDGTSRLSKDGKEIRTFLGGGFAEYAIVGENALTRVPEDMDLEKVAVLGCAGLTGYGAISSSKIEPGDTVAVIGVGGVGLSTIQLLRASGAGRIIAVGTKKWKLDRAMELGATDVVNSKEIDPVKAIKEITGGGPQVVIEAGGNEDTIHMALDSVRIGGKVVLVGLPPATAMIPIRVASIVRGGIEVVGNYGGRPRVDMPKLLELVRQGRYDPSRLVTGRFRLEEINEAVKMLEEGEAIRSLIIP", "values": [{"measurement": "Km", "setting": "[1]", "result": 5000, "unit": "µM"}]}, {"protein": "Sulfolobus tokodaii malonyl-CoA reductase (St-Mcr), wild type, SEQ ID No. 7 (Sulfurisphaera tokodaii str. 7) (protein, full length 359 aa) MILMRRTLKAAILGATGLVGIEYVRMLSNHPYIKPAYLAGKGSVGKPYGEVVRWQTVGQVPKEIADMEIKPTDPKLMDDVDIIFSPLPQGAAGPVEEQFAKEGFPVISNSPDHRFDPDVPLLVPELNPHTISLIDEQRKRREWKGFIVTTPLCTAQGAAIPLGAIFKDYKMDGAFITTIQSLSGAGYPGIPSLDVVDNILPLGDGYDAKTIKEIFRILSEVKRNVDEPKLEDVSLAATTHRIATIHGHYEVLYVSFKEETAAEKVKETLENFRGEPQDLKLPTAPSKPIIVMNEDTRPQVYFDRWAGDIPGMSVVVGRLKQVNKRMIRLVSLIHNTVRGAAGGGILAAELLVEKGYIEK", "values": [{"measurement": "Km", "setting": "[3]", "result": 1150, "unit": "µM"}, {"measurement": "Vmax", "setting": "[3]", "result": 1.7, "unit": "µmol/min/mg"}, {"measurement": "Km", "setting": "[4]", "result": 200, "unit": "µM"}, {"measurement": "Vmax", "setting": "[4]", "result": "0.98 ± 0.17", "unit": "µmol/min/mg"}, {"measurement": "Km", "setting": "[5]", "result": 250, "unit": "µM"}, {"measurement": "Vmax", "setting": "[5]", "result": 0.1, "unit": "µmol/min/mg"}]}, {"protein": "M. extorquens malyl-CoA lyase (Me-Mcl), wild type, SEQ ID No. 1 (Methylorubrum extorquens AM1) (protein, full length 324 aa) MSFTLIQQATPRLHRSELAVPGSNPTFMEKSAASKADVIFLDLEDAVAPDDKEQARKNIIQALNDLDWGNKTMMIRINGLDTHYMYRDVVDIVEACPRLDMILIPKVGVPADVYAIDVLTTQIEQAKKREKKIGFEVLIETALGMANVEAIATSSKRLEAMSFGVADYAASTRARSTVIGGVNADYSVLTDKDEAGNRQTHWQDPWLFAQNRMLVACRAYGLRPIDGPFGDFSDPDGYTSAARRCAALGFEGKWAIHPSQIDLANEVFTPSEAEVTKARRILEAMEEAAKAGRGAVSLDGRLIDIASIRMAEALIQKADAMGGK", "values": [{"measurement": "Km", "setting": "[6]", "result": 500, "unit": "µM"}, {"measurement": "Vmax", "setting": "[6]", "result": "36 μmol/(min mg prot)"}]}]}
